Data from US20220332804A1 (CSL INNOVATION, published 2022).
Positions count from the first letter of the chain named.

How the values were obtained:
Assay in all cases: SPR, KD relative to WT C2;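 also: biacore SPR at 37 °C, anti-C2 mAbs captured via immobilised goat anti-human IgG, C2 alanine or serine surface mutants as analytes, 1:1 model fitted, double-referenced sensograms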
[1] = target: T1, human C2 M316A (human, UniProt P06681 21-752)
T1 sequence: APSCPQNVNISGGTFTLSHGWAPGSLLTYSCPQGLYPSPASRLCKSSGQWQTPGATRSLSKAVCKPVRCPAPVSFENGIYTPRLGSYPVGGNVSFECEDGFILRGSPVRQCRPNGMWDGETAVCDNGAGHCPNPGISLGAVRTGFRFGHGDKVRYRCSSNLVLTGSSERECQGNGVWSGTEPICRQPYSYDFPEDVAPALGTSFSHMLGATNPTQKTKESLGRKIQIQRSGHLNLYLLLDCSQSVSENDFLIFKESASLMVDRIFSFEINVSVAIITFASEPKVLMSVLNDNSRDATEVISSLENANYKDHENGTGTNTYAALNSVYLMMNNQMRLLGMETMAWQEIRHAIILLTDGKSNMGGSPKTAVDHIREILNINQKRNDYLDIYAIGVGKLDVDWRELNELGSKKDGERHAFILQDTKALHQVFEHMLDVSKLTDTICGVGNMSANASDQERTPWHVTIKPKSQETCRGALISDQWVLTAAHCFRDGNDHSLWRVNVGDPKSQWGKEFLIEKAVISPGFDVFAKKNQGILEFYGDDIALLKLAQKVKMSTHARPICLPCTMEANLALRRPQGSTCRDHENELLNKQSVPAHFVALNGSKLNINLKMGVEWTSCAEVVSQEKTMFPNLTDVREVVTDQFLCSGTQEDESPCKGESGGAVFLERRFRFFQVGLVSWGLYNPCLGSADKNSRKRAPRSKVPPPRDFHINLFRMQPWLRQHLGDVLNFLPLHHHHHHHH

[2] = target: T2, human C2 N471A (human, UniProt P06681 21-752)
T2 sequence: T1 sequence with A296M, N451A

[3] = target: T3, human C2 M452A (human, UniProt P06681 21-752)
T3 sequence: T1 sequence with A296M, M432A

[4] = target: T4, human C2 H451A (human, UniProt P06681 21-752)
T4 sequence: T1 sequence with A296M, H431A

B1: RF16-226 (antibody, human IgG4 S228P, lambda)
heavy: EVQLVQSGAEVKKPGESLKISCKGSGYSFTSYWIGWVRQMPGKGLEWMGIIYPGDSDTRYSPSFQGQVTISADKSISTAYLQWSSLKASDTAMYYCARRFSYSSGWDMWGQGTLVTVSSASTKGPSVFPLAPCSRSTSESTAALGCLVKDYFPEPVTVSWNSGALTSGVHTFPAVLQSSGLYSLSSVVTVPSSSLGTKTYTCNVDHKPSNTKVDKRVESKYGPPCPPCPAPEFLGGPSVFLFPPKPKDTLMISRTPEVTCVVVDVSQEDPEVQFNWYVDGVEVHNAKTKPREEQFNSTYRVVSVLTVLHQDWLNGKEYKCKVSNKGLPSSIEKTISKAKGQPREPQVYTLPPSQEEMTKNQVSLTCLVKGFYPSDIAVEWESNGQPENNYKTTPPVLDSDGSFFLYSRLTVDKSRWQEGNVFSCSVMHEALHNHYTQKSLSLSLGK
light: SYELTQPPSVSVSPGQTARITCSGDALTSKYVAWYQQKSGLAPLLVIYEDTRRPSGIPAKFSGSSSGSVATLTISGAHGDDEADYYCYSTDASGHQRVFGGGTKLTVLSQPKAAPSVTLFPPSSEELQANKATLVCLISDFYPGAVTVAWKADGSPVKAGVETTKPSKQSNNKYAASSYLSLTPEQWKSHRSYSCQVTHEGSTVEKTVAPTECS
notes: pH-dependent anti-C2 antibody from a phage display library; also called WT
Fold diff [1]: 1 fold | Fold diff [2]: 1 fold | Fold diff [3]: 0 fold | Fold diff [4]: 11 fold
